# Test results reported in US12559863B2, “Macrocyclic modulators of disease associated protein misfolding and aggregation” (RESQ BIOTECH, priority 2017, dated 2026).
# Target: T1, Aβ42-GFP (Homo sapiens, UniProt P05067)
# T1 construct: a chimeric fusion of the human Aβ(1-42) peptide (Aβ42) with GFP; expressed in transfected cells; host or cells: E. coli BL21(DE3)
# Test: High-throughput sequencing of pSICLOPPS vectors isolated after bacterial sorting for enhanced Aβ42-GFP fluorescence
# Settings: for Reads/Total TXXXR reads (%) / Reads/Total pentapeptide reads (%) / Reads/Total peptide reads (%): after the second round of bacterial sorting; for Reads/Total TXXXR reads (%): relative to total TXXXR reads; for Reads/Total pentapeptide reads (%): relative to total pentapeptide reads; for Reads/Total peptide reads (%): relative to total peptide reads; for Number of reads: high-throughput sequencing of isolated pSICLOPPS-NuX1X2X3-X5 vectors after the second round of bacterial sorting for enhanced Aβ42-GFP fluorescence, selected cyclo-TXXXR pentapeptides
# Text: On the other hand, very few bioactive sequences resembling AβC5-34 should exist. […] The peptide-encoding vectors contained in these clones were isolated and the peptide-encoding region of approximately 5.6 million of these plasmids was sequenced using an Ion Torrent high-throughput sequencing platform. […] First, pentapeptides were the dominant peptide species within the sorted pool (FIG. 12D), in agreement with previous observations (FIG. 8G). Second, the most prevalent motif among the selected pentapeptide sequences were TXXXR pentapeptides (˜47% of the selected pentapeptide-encoding pSICLOPPS plasmids; ˜42% of the unique selected pentapeptide sequences) (Table 1), in accordance with previous observations (FIG. 8G). […] At position 2, Thr, Ala, and Val were preferred, while aromatic residues (Phe, Trp, Tyr) were completely excluded from the selected TXXXR peptide pool, in full agreement with our site-directed mutagenesis studies. At the highly variable position 3, the complete absence of the negatively charged amino acids Glu and Asp among the selected sequences was notable (FIG. 12E). […] It is noteworthy, that Lys and Gln residues were practically absent from all positions, while the β sheet-breaking amino acid Pro that is typically included in designed peptide-based inhibitors of amyloid aggregation appeared with strikingly low frequencies (FIG. 12E).
# Electrocompetent E. coli BL21(DE3) cells (Novagen, USA) carrying either the expression vector pETSOD1(A4V)-GFP, which produces SOD1(A4V)-GFP under control of the strong bacteriophage T7 promoter, or pETAβ42-GFP, which produces Aβ42-GFP under control of the T7 promoter, were co-transformed with the combined pSICLOPPS-NuX1X2X3-X5 vector library. Approximately 10^8 transformants carrying both the vector library and either pETSOD1(A4V)-GFP or pETAβ42-GFP vectors were harvested, pooled together, and grown in Luria-Bertani (LB) liquid medium containing either 0.005% (pETSOD1(A4F)-GFP) or 0.002% (pETAβ42-GFP) L-arabinose—the inducer of cyclic peptide production—at 37° C. with shaking. When the optical density at 600 nm (OD600) of the bacterial culture was about 0.5, 0.01 (pETSOD1(A4F)-GFP) or 0.1 (pETAβ42-GFP) mM isopropyl-β-D-thiogalactoside (IPTG) was added to the medium to induce overexpression of the reporter. […] The isolated cells were re-grown and screened for additional rounds in an identical manner until the desired enrichment in high-fluorescence clones was achieved.
# For the characterization of the initial libraries, a combined pSICLOPPS-NuX1X2X3-X5 vector library was prepared containing approximately equal amounts of each one of the tetra-, penta- and hexapeptide sub-libraries. These samples were digested with NcoI and BsrGI and the resulting ˜250 bp product that contained the variable peptide-encoding region was isolated. High-throughput sequencing analysis was performed using an Ion Torrent high-throughput sequencing platform. From the obtained data, all the sequences with mismatches outside of the variable peptide-encoding region were removed, and only the 12-, 15- or 18-bp-long peptide-encoding sequences were subjected to further analysis. The libraries of the selected cyclic peptides that enhance either SOD1(A4V)-GFP or Aβ42-GFP fluorescence were sequenced in a similar manner, with the only exception being that all sequences including stop codons were discarded from subsequent analysis.
Substance,Reads/Total TXXXR reads (%),Reads/Total pentapeptide reads (%),Reads/Total peptide reads (%),Number of reads
AβC5-248 (TTTHR; cyclic),0.018,0.008,0.007,339
AβC5-252 (TVIWR; cyclic),0.017,0.008,0.007,331
AβC5-253 (TTWFR; cyclic),0.017,0.008,0.007,327
AβC5-255 (TTSRR; cyclic),0.017,0.008,0.007,325
AβC5-258 (TTSCR; cyclic),0.016,0.007,0.007,301
AβC5-260 (TTWTR; cyclic),0.016,0.007,0.007,295
AβC5-262 (TTSSR; cyclic),0.015,0.007,0.006,286
AβC5-263 (THLAR; cyclic),0.015,0.007,0.006,284
AβC5-264 (TSGAR; cyclic),0.015,0.007,0.006,282
AβC5-266 (TTLRR; cyclic),0.014,0.007,0.006,274
AβC5-270 (TATWR; cyclic),0.014,0.007,0.006,266
AβC5-272 (TCMWR; cyclic),0.013,0.006,0.006,254
AβC5-275 (TAHVR; cyclic),0.013,0.006,0.005,249
AβC5-276 (TSWAR; cyclic),0.013,0.006,0.005,249
AβC5-278 (TTWLR; cyclic),0.013,0.006,0.005,241
AβC5-291 (TTLDR; cyclic),0.011,0.005,0.005,213

Substance,Reads/Total TXXXR reads (%),Reads/Total pentapeptide reads (%),Reads/Total peptide reads (%),Number of reads
AβC5-294 (TTPHR; cyclic),0.011,0.005,0.005,207
AβC5-298 (TTRGR; cyclic),0.011,0.005,0.004,201
AβC5-299 (TTVGR; cyclic),0.011,0.005,0.004,200
AβC5-301 (TTTRR; cyclic),0.010,0.005,0.004,191
AβC5-304 (TSINR; cyclic),0.010,0.004,0.004,182
AβC5-305 (TTADR; cyclic),0.010,0.004,0.004,181
AβC5-315 (TTSER; head-to-tail cyclic),0.008,0.004,0.003,158
AβC5-316 (TTCAR; head-to-tail cyclic),0.008,0.004,0.003,157
AβC5-317 (TTAWR; head-to-tail cyclic),0.008,0.004,0.003,156
AβC5-320 (TTVER; head-to-tail cyclic),0.008,0.004,0.003,150
AβC5-321 (TTTFR; head-to-tail cyclic),0.008,0.004,0.003,148
AβC5-323 (TAVDR; head-to-tail cyclic),0.008,0.004,0.003,147
AβC5-325 (TVWIR; head-to-tail cyclic),0.008,0.004,0.003,144
AβC5-329 (TTVRR; head-to-tail cyclic),0.007,0.003,0.003,141
AβC5-333 (THVRR; head-to-tail cyclic),0.007,0.003,0.003,137
